In article PMC5064212, “HigB of Pseudomonas aeruginosa Enhances Killing of Phagocytes by Up-Regulating the Type III Secretion System in Ciprofloxacin Induced Persister Cells”:

Molecular target: HigA-His (Pseudomonas aeruginosa PA14, UniProt A0A0H2ZHN2 1-101)
Assay: EMSA; 0, 4 or 20 nM HigA, 300 ng DNA, 5 mM Ca2+
Details: protein: recombinant; tags: His (6xHis with Gly-Gly linker at C-terminus per higA cloning primer S4); chain copies: 2; label: none (ethidium bromide stain); blunt

B1: 38-bp higB-higA promoter fragment (dsDNA)
DNA 1: CTGTAGTGAAGTTAACGCTTAACGTTAAGGGTTAATGA
DNA 2: TCATTAACCCTTAACGTTAAGCGTTAACTTCACTACAG
Q: Does B1 bind?
A: Result: binds

B2: 38-bp fragment with scrambled palindrome (EMSA-(M)) (dsDNA)
DNA 1: CTGTAGTGAAGTCTAGACTTAAGCATATGGGTTAATGA
DNA 2: TCATTAACCCATATGCTTAAGTCTAGACTTCACTACAG
Q: Does B2 bind?
A: Result: no binding
